T1: ChxH (Streptomyces sp. YIM 56141, UniProt I7D037)
T1 sequence (I7D037 1-262): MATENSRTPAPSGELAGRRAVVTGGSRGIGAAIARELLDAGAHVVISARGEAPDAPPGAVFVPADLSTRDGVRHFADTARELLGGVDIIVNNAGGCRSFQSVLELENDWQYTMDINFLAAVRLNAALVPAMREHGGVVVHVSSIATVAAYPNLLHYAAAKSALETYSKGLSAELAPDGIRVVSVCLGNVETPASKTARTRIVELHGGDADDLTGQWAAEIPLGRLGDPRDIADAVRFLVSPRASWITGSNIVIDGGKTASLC

B1: ChxH (Streptomyces sp. YIM 56141) (protein)
chain: T1 sequence (I7D037 1-262)

How the values were obtained:
ChxH = target: T1, ChxH; experiment: steady-state kinetics, initial velocity, Michaelis-Menten; details: read-out: apparent KM; saturating NADP+; reverse reaction 1 to 10
purified protein [1] = substrate: NC(=O)c1ccc[n+]([C@@H]2O[C@H](COP(=O)(O)OP(=O)(O)OC[C@H]3O[C@@H](n4cnc5c(N)ncnc54)[C@H](O)[C@@H]3O)[C@@H](O)[C@H]2O)c1; experiment: purified protein; details: saturating 1; reverse reaction 1 to 10; varied: cofactor
purified protein [2] = substrate: NC(=O)c1ccc[n+]([C@@H]2O[C@H](COP(=O)(O)OP(=O)(O)OC[C@H]3O[C@@H](n4cnc5c(N)ncnc54)[C@H](OP(=O)(O)O)[C@@H]3O)[C@@H](O)[C@H]2O)c1; experiment: purified protein; details: saturating 1; reverse reaction 1 to 10; varied: cofactor

Row | Molecule | Km (ChxH) [µM] | Km (purified protein [1]) [µM] | kcat (purified protein [1]) [min^–1] | Km (purified protein [2]) [µM] | kcat (purified protein [2]) [min^–1]
1 | C[C@@H]1C[C@@H]([C@H](O)CC2CC(=O)NC(=O)C2)C(=O)[C@@H](C)C1 [compound 1, Cycloheximide] | 99 ± 7 | – | – | – | –
2 | B1 | – | 233 ± 37 | 13 ± 3 | 76 ± 5 | 387 ± 23

Source: article PMC4051428 (Organic Letters, 2014)
